In the assay the target is WT MCT1/BSG-2 complex (mouse) (mouse) (UniProt P53986). The experiment in a line: cell-based or functional assay.

Results on one molecule are retold here after patent US20250009878A1.

Chain of UniProt P53986 (P53986 whole entry, chain 1 of 2): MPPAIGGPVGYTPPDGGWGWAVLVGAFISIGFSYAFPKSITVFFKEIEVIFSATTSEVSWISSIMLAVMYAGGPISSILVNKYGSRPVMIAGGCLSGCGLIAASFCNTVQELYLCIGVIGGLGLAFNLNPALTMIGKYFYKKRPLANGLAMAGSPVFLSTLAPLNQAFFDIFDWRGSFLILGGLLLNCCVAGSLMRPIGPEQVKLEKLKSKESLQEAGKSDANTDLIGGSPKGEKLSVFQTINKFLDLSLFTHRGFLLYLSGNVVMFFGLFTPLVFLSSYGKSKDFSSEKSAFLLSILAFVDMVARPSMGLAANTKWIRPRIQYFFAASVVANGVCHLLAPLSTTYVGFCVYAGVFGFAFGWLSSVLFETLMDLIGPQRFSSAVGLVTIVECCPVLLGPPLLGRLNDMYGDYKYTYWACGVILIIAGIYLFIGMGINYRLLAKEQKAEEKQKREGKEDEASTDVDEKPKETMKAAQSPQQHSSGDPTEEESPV
Chain of UniProt P53986 (P18572 other isoform, or with tags, fused parts or gaps, chain 2 of 2, further chain): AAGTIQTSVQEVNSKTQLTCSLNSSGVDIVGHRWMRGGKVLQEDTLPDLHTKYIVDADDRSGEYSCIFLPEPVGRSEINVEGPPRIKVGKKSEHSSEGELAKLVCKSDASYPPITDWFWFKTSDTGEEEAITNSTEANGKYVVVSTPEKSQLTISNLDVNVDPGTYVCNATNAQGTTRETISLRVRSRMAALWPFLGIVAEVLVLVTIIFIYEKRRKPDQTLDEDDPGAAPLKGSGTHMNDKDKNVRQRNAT

B1: WZHAb10 (antibody, human IgG1, kappa, V domains shown)
VH: QVQLVQSGAEVKKPGASVKVSCKASGYTFTNYWIHWVRQAPGQGLEWMGMIHPNSGSINYNEKFKTRVTMTRDTSTSTVYMELSSLRSEDTAVYYCARVGSGSLDYWGQGTLVTVSS
VL: EIVLTQSPATLSLSPGERATLSCRASQSISDYLHWYQQKPGQAPRLLIKYVSQSISGIPARFSGSGSGTYFTLTISSLEPEDVAVYYCQNGEEAPYTFGQGTKLEIKR
For the molecule B1, the decrease in transport activity (H+ influx, HPTS proteoliposome flux assay) came to 75%.
